{
  "source": "paper PMC10338489",
  "about": "“Structural and photophysical characterization of the small ultra-red fluorescent protein” (Nature Communications, 2023)",
  "key": {"smURFP H61R": {"biological_target": "smURFP H61R", "assay": "native gel or EMSA; NativePAGE 4-16% Bis-Tris gel, 0.27 μg purified protein per lane, without and with 100 mM DTT; Coomassie stain and far-red fluorescence; homodimeric smURFP used as a size reference"}, "[1]": {"biological_target": "the molecule itself", "assay": "crystal structure; apo-smURFP crystallised from smURFP with 20% BV attached; hanging drop, 20 °C, 4 M Na nitrate + 0.1 M NaOAc (pH 4.6); 2.8 Å, space group C222(1), six protomers (three homodimers) in the asymmetric unit"}, "[2]": {"biological_target": "the molecule itself", "assay": "cell-based or functional assay"}},
  "note": "Where “and” joins values, the source holds several entries; their conditions need not be identical. Equal entries are not always repeated.",
  "data": [
    {"molecule": "CytERM-mGFP", "values": [
      {"measurement": "OSER assay in HEK293A cells expressing CytERM-mGFP: ratio of the MFI of the OSER structure to the MFI of the nuclear envelope, after 24 and 48 h", "setting": "CytERM-mGFP", "result": "< 2.3"}
    ]},
    {"molecule": "smURFP H61R", "values": [
      {"measurement": "stoichiometry N", "setting": "smURFP H61R", "result": "2 and > 2"}
    ]},
    {"molecule": "small Ultra-Red Fluorescent Protein (smURFP) (other, biliverdin (BV) covalently attached to C52 in part of the protein (20% BV with high expression); the crystal holds apo-smURFP) MKTSEQRVNIATLLTENKKKIVDKASQDLWRRHPDLIAPGGIAFSQRDRALCLRDYGWFLHLITFCLLAGDKGPIESIGLISIREMYNSLGVPVPAMMESIRCLKEASLSLLDEEDANETAPYFDYIIKAMS", "values": [
      {"measurement": "stoichiometry N", "setting": "[1]", "result": 2},
      {"measurement": "OSER assay in HEK293A cells expressing CytERM-smURFP: ratio of the MFI of the OSER structure to the MFI of the nuclear envelope, after 24 h (4.8) and 48 h (3.7)", "setting": "[2]", "result": 4.8}
    ]}
  ]
}
